Patent publication US20240132622A1 (Bristol-Myers Squibb, published 2024)
Blank lines part the entries; values can stand above or below the binder they belong to.

Experiments:
[1] = molecular target: T1, recombinant human PAD4 (human, UniProt Q9UM07 1-663); experiment: SPR 37 C, captured antibody, PAD4 analyte, 2 mM CaCl2
T1 construct: also called rhPAD4; hPAD4
Method: (§1) For SPR measurements, either an anti-human capture surface or Protein A surface (Cytiva catalog #29127555) was used. Anti-human capture surface was prepared by immobilizing anti-human capture antibody (Cytiva catalog #29234600) onto flow cells of a CM5 or CM4 biosensor following the manufacturer's amine coupling protocol (Cytiva catalog #BR-1006-33). SPR experiments were conducted at 37° C. using HBS-P (150 mM NaCl, 10 mM HEPES, pH 7.6, 0.05% Tween-20) (TEKNOVA catalog #H8032) with additional 150 mM NaCl and 1 mM or 2 mM CaCl₂) (see Table 2) or 2 mM EDTA (see Table 3) as running buffer. Antibodies were diluted to 1.5 μg/mL in the running buffer, and were captured across active biosensor flow cells at 10 μL/min for 15 to 30 seconds. […] The association and dissociation of the antibodies with PAD4 were measured. One 30 second injection followed by one 15 second injection of 10 mM glycine pH 1.5 was used to regenerate the Protein A capture surface between assay cycles. For anti-human capture surface, two 30 second injections of 3 M MgCl₂ was used for regeneration. SPR measurements for mAb20 and mAb 13 SPR were done in the presence of 2 mM CaCl₂). The remaining antibodies were tested in the presence of 1 mM CaCl₂).
Rate constants kₒₙ and koff were derived from reference flow cell- and 0 nM blank-subtracted sensorgrams, and were fit to a 1:1 binding model in Biacore® Insight Evaluation software version 3.0.12.15655. Deviations from 1:1 binding model were observed, which may be caused by increased dimerization of PAD4 at higher concentrations. The equilibrium dissociation constant, KD, was calculated as the ratio of rate constants koff/kₒₙ for each PAD4 antibody. For those antibodies that were tested in multiple SPR experiments, the average value and standard deviation from two or three separate experiments are listed in Tables 2 and 3.

[2] = molecular target: T2, recombinant human GST-PAD4 fusion protein (human, UniProt Q9UM07 1-663); experiment: BLI (BLITZ), GST-PAD4 on anti-GST biosensor
T2 construct: not shown: GST tag
Method: Affinity testing methods. Affinity of each antibody clone for a GST-PAD4 fusion protein was determined by Biolayer Interferometry (BLI) using a BLITZ instrument (Forte Bio, Menlo Park, California), using a biosensor chip (Anti-GST chip, Forte Bio, Cat. No. 18-5096). The biosensor was treated with citrate buffer, PBS, or PBS/Ca for 15 seconds; recombinant human GST-PAD4 was added on a drop holder for 80 seconds to prime the biosensor with PAD4; antibody was then added on the drop holder for 80 seconds to allow binding between antibody and the PAD4; PBS/PBS-Ca was added on the drop holder for 60 seconds to remove unbound antibody. The association rate constants, kₒₙ, dissociation rate constants, koff, and equilibrium dissociation constants, KD, were determined using BLITZ Pro Software, version 1.2.0.49.

[3] = molecular target: T1, recombinant human PAD4; experiment: cell-based or functional assay
[4] = molecular target: T1, recombinant human PAD4; experiment: cell-based or functional assay; remark: listed apart in the source
[5] = molecular target: T1, recombinant human PAD4; experiment: SPR 37 C, captured antibody, PAD4 analyte, 2 mM CaCl2; biphasic response, approximate KD; 2 mM CaCl2, 37 C; biphasic response
Method: as §1, with “SPR measurements for mAb20 and mAb 13 SPR were done in the presence of 2 mM CaCl₂). The remaining antibodies were tested in the presence of 1 mM CaCl₂).” left out
(§2) Rate constants kₒₙ and koff were derived from reference flow cell- and 0 nM blank-subtracted sensorgrams, and were fit to a 1:1 binding model in Biacore® Insight Evaluation software version 3.0.12.15655. […] The equilibrium dissociation constant, KD, was calculated as the ratio of rate constants koff/kₒₙ for each PAD4 antibody. […]

[6] = molecular target: T1, recombinant human PAD4; experiment: SPR 37 C, captured antibody, PAD4 analyte, 1 mM CaCl2; 1 mM CaCl2, 37 C; mean of two or three experiments
Method: as §1, with “SPR measurements for mAb20 and mAb 13 SPR were done in the presence of 2 mM CaCl₂). The remaining antibodies were tested in the presence of 1 mM CaCl₂).” left out
as §2

[7] = molecular target: extracellular matrix (ECM) proteins; experiment: ECM plate ELISA (Matrigel), 1 uM antibody, A450 over wells without sample
[8] = molecular target: T1, recombinant human PAD4; experiment: SPR 37 C, captured antibody, PAD4 analyte, 2 mM EDTA
[9] = molecular target: T1, recombinant human PAD4; experiment: SPR 37 C, captured antibody, PAD4 analyte, 1 mM CaCl2

T1 sequence (Q9UM07 whole entry): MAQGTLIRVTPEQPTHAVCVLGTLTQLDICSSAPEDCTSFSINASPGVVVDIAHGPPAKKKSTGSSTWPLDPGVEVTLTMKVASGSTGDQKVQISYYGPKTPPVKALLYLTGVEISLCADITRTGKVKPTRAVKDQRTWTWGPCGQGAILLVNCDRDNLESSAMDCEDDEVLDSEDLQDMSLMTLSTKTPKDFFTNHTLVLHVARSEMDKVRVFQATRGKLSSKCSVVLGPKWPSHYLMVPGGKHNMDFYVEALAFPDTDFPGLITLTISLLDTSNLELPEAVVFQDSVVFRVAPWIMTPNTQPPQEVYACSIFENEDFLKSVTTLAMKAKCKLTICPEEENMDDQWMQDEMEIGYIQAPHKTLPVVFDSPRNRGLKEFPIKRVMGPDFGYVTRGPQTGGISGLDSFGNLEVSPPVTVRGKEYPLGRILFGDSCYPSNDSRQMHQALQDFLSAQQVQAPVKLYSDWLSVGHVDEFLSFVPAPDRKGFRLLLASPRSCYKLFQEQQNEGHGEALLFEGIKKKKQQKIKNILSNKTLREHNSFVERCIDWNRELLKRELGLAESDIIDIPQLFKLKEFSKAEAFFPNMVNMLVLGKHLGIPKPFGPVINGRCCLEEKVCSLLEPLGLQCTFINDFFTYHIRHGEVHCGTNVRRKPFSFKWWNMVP

koff [1]: 0.0062 s⁻¹ | kon [1]: 43000 M⁻¹ s⁻¹ | Kd [2]: < 1.71 nM | koff [2]: < 1e-06 s⁻¹ | kon [2]: 583 M⁻¹ s⁻¹ | IC50 of inhibition of PAD4 activity (% Activity against [AB Clone 20] nM) [3]: 39.6 nM | IC50 (average), PAD4 citrullination of peptide …, RapidFire MS [4]: 104 nM | Kd [5]: ~150 nM
B1: clone 20 (mAb20) (antibody, V domains shown)
VH: QVQLQQSGAELARPGASVKLSCKATGYTFTNYGISWVKQRTGQGLEWIGEIYPRSGNTYHNEKFKDKATLTADKSSSTAYMEFRSLTSEDSAVYFCARSMITTRYWYFDVWGKGTTVTVSS
VL: NIVLTQSPASLAVSLGQRATLSCRASESVDTYGNSFMHWYQQKPGQPPKLLIYLASNLESGVPARFSGSGSRTDFTLTIDPVEADDAATYYCQQNNEDPLTFGAGTKLELK
notes: Murine anti-human PAD4 antibody; also called murine anti-human clone 20 antibody

kon [6]: 550000 M⁻¹ s⁻¹ | ECM Score (1 µM) [7]: 1 | IC50 (average), PAD4 citrullination of peptide …, RapidFire MS [4]: 77 nM | Kd [8]: 2.6 nM | koff [8]: 0.00054 s⁻¹ | kon [8]: 220000 M⁻¹ s⁻¹ | Kd [9]: 2.7 nM | koff [9]: 0.00089 s⁻¹
B2: hz20-1 (antibody, V domains shown)
VH: QVQLVQSGAEVKKPGASVKVSCKASGYTFTNYGISWVRQAPGQGLEWMGEIYPRSGNTYHNEKFKDRVTMTRDTSTSTVYMELSSLRSEDTAVYYCARSMITTRYWYFDVWGKGTTVTVSS
VL: DIVMTQSPDSLAVSLGERATINCRASESVDTYGNSFMHWYQQKPGQPPKLLIYLASNLESGVPDRFSGSGSGTDFTLTISSLQAEDVAVYYCQQNNEDPLTFGAGTKLELK
notes: light constant region not tied to this antibody
